Measured values: PMC12301328, “Identification of a preferred DNA binding sequence and novel regulon member for CadR in Pseudomonas aeruginosa PAO1”

How the values were obtained:
[1] = molecular target: CadR from Pseudomonas aeruginosa PAO1 (PaCadR) (Pseudomonas aeruginosa PAO1); test: not stated; purified PaCadR in solution (Supplementary Figure S7); method not given
[2] = molecular target: CadR from Pseudomonas aeruginosa PAO1 (PaCadR) (Pseudomonas aeruginosa PAO1); test: native gel or EMSA; adaptation of a Ferguson plot of the DNA-bound PaCadR species on native PAGE (Supplementary Figure S6); PaCadR bound to its consensus DNA
PaCadR [3] = molecular target: T1, PaCadR (Pseudomonas aeruginosa PAO1, UniProt Q9HXV1 1-156); test: BLI; no added metal; EMSA: 1X CutSmart buffer, 1 mM DTT, 3 mM EDTA, 5 nM each DNA, 37 C, 20 min; BLI: 20 mM Tris-Cl pH 7.5, 100 mM NaCl, 0.01% Tween-20, 1 mM DTT, 37 C; conditions: protein: recombinant; chain copies: 2; label: 5' biotin on ST2R strand; blunt
T1 sequence: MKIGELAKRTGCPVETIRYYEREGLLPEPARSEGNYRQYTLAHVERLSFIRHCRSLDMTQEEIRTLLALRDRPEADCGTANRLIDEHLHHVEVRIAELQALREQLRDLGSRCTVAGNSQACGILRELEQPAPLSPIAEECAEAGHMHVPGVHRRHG

PaCadR [4] = molecular target: T1, PaCadR; test: EMSA; 50 nM PaCadR; not significantly different from WT; EMSA: 1X CutSmart buffer, 1 mM DTT, 3 mM EDTA, 5 nM each DNA, 37 C, 20 min; BLI: 20 mM Tris-Cl pH 7.5, 100 mM NaCl, 0.01% Tween-20, 1 mM DTT, 37 C; conditions: protein: recombinant; chain copies: 2; label: 5' IRDye-700 on ST2R strand; blunt
PaCadR [5] = molecular target: T1, PaCadR; test: EMSA; 20-80 nM PaCadR; EMSA: 1X CutSmart buffer, 1 mM DTT, 3 mM EDTA, 5 nM each DNA, 37 C, 20 min; BLI: 20 mM Tris-Cl pH 7.5, 100 mM NaCl, 0.01% Tween-20, 1 mM DTT, 37 C; conditions: protein: recombinant; chain copies: 2; label: 5' IRDye-800 on ConL strand; blunt

**Q.** “CadR from Pseudomonas aeruginosa PAO1 (PaCadR) (from UniProt A0A0H2ZEP1 1-156) (natural protein)” was tested. Which stoichiometry N [1] did it give?
**A.** 2

**Q.** And the stoichiometry N [2]?
**A.** 2

B1: Control (BLI) (dsDNA)
DNA 1: CTAGGAATTCGTGCAGAGGTGACGTCATAGAATTCGCATCCCTCCAGAAGCTTGGAC
DNA 2: GTCCAAGCTTCTGGAGGGATGCGAATTCTATGACGTCACCTCTGCACGAATTCCTAG
**Q.** Does B1 bind (PaCadR [3])?
**A.** no binding

B2: ST2_CadR_mt12 (dsDNA)
DNA 1: CTAGGAATTCGTGCAGAGGTGAAACCCTGTAGTGACTACAGGGTTCATCCCTCCAGAAGCTTGGAC
DNA 2: GTCCAAGCTTCTGGAGGGATGAACCCTGTAGTCACTACAGGGTTTCACCTCTGCACGAATTCCTAG
**Q.** Does B2 bind (PaCadR [4])?
**A.** binds

B3: Control (EMSA) (dsDNA)
DNA 1: CCTCTCTATGGGCAGTCGGTGATCTAGGAATTCGTGCAGAGGTGACGTCATAGAATTCGCATCCCTCCAGAAGCTTGGAC
DNA 2: GTCCAAGCTTCTGGAGGGATGCGAATTCTATGACGTCACCTCTGCACGAATTCCTAGATCACCGACTGCCCATAGAGAGG
**Q.** Does B3 bind (PaCadR [5])?
**A.** no binding
